Test results taken from paper PMC6341664, “Role of the highly conserved G68 residue in the yeast phosphorelay protein Ypd1: implications for interactions between histidine phosphotransfer (HPt) and response regulator proteins” (BMC Biochemistry, 2019).

Columns and labels:
Experiment in all cases: other fluorescence titration; 5-IAF-labelled Ypd1-T12C (30 pmol in 1.9 mL) titrated with Sln1-R1, 10 nM to 6 uM; 23.0 °C; 20 mM Tris pH 8.0, 50 mM NaCl, 10 mM MgCl2; excitation 492 nm, emission 515 nm; quadratic fit; 'observed' Kd, three replicate titrations
Conditions in all cases: both partners purified
[1] = target: T1, Ypd1-T12C-G68Q, fluorescein-labelled (S. cerevisiae, UniProt Q07688 1-167, T12C | G68Q, 5-iodoacetamidofluorescein (5-IAF) on the cysteine introduced at position 12)
T1 construct: Ypd1, HPt protein of Saccharomyces cerevisiae; double mutant made on pET-Ypd1-T12C; PDB 6M7W is the single mutant Ypd1-G68Q (from pUC-Ypd1, without T12C); also called Ypd1-G68Q
T1 sequence: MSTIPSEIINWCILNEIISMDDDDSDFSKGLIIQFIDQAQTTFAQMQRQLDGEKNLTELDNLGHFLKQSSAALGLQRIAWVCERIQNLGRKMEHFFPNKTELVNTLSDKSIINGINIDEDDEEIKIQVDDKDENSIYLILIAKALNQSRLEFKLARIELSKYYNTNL

[2] = target: T2, Ypd1-T12C~F (fluorescein-labelled Ypd1-T12C) (S. cerevisiae, UniProt Q07688 3-167, T12C, 5-iodoacetamidofluorescein (5-IAF) on the cysteine introduced at position 12 (70-90% of the molecules labelled))
T2 construct: Ypd1, histidine phosphotransfer (HPt) protein of Saccharomyces cerevisiae; YPD1 gene in pET21a(+), T12C; also called WT; 5-IAF labelled Ypd1
T2 sequence: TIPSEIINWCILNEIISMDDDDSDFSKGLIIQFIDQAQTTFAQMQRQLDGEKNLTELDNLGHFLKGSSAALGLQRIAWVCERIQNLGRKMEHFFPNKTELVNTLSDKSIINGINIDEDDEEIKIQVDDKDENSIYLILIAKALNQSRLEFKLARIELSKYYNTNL

[3] = target: T3, Ypd1-T12C-G68E, fluorescein-labelled (S. cerevisiae, UniProt Q07688 3-167, T12C | G68E, 5-iodoacetamidofluorescein (5-IAF) on the cysteine introduced at position 12)
T3 construct: Ypd1, HPt protein of Saccharomyces cerevisiae; double mutant made on pET-Ypd1-T12C; also called Ypd1-G68E
T3 sequence: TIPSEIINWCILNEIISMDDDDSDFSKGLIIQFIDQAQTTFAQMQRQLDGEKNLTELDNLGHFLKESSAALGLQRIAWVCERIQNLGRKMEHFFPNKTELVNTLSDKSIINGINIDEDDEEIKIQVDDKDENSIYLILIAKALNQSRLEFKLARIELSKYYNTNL

[4] = target: T4, Ypd1-T12C-G68V, fluorescein-labelled (S. cerevisiae, UniProt Q07688 3-167, T12C | G68V, 5-iodoacetamidofluorescein (5-IAF) on the cysteine introduced at position 12)
T4 construct: Ypd1, HPt protein of Saccharomyces cerevisiae; double mutant made on pET-Ypd1-T12C; also called Ypd1-G68V
T4 sequence: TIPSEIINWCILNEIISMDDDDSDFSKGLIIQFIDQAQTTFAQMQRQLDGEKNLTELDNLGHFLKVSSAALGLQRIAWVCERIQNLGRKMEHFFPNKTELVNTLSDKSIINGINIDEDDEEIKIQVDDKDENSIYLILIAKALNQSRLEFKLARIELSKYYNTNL

[5] = target: T5, Ypd1-T12C-G68L, fluorescein-labelled (S. cerevisiae, UniProt Q07688 3-167, T12C | G68L, 5-iodoacetamidofluorescein (5-IAF) on the cysteine introduced at position 12)
T5 construct: Ypd1, HPt protein of Saccharomyces cerevisiae; double mutant made on pET-Ypd1-T12C; also called Ypd1-G68L
T5 sequence: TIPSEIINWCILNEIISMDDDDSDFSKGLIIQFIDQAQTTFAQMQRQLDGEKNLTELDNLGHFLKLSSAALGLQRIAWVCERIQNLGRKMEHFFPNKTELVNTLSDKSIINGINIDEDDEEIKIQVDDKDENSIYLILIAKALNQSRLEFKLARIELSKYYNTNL

Kd [1]: 600 nM
Kd [2]: 940 nM
Kd [3]: 500 nM
Kd [4]: 2900 nM
Kd [5]: 1300 nM
B1: Sln1-R1 (receiver domain of Sln1) (domain or fragment, S. cerevisiae)
chain: TSVKILVVEDNHVNQEVIKRMLNLEGIENIELACDGQEAFDKVKELTSKGENYNMIFMDVQMPKVDGLLSTKMIRRDLGYTSPIVALTAFADDSNIKECLESGMNGFLSKPIKRPKLKTILTEFCAAYQGKKNNK
notes: Receiver domain (R1) of the hybrid sensor histidine kinase Sln1 of Saccharomyces cerevisiae, in the vector pFJS16; neither is said here; also called receiver domain from Sln1
